According to patent publication US7005258B1, “Cdc25 genes, encoded products and uses thereof” (The National Institutes of Health, priority 1991, dated 2006):

T1: human cdc25 A (GST fusion protein) (Homo sapiens, UniProt P30304)
T1 construct: A plasmid containing the entire open reading frame of human cdc25 A was digested with Ncol (at amino acid 1); made in house; host or cells: E. coli (bacteria)
T1 sequence (P30304 1-524): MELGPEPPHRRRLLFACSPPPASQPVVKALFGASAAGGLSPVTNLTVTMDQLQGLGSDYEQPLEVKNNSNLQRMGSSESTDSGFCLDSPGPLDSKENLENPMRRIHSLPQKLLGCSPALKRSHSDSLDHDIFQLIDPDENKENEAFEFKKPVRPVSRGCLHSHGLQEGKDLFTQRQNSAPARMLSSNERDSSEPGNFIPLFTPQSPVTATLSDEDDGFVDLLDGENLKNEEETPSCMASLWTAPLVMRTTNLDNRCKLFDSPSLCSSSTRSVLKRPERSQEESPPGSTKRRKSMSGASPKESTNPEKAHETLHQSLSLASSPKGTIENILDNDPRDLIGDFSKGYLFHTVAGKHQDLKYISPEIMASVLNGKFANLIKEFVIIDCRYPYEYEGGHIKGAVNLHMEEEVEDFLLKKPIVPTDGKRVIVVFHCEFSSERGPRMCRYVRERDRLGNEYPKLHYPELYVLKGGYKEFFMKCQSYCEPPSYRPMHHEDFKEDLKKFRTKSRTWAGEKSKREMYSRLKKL

T2: human cdc25 B (GST fusion protein) (Homo sapiens, UniProt P30305)
T2 construct: An 2.4 kb Smal fragment from the p4×1.2 plasmid encoding amino acids 32–566 was subcloned; made in house; host or cells: E. coli (bacteria)
T2 sequence (P30305 32-566 isoform P30305-2): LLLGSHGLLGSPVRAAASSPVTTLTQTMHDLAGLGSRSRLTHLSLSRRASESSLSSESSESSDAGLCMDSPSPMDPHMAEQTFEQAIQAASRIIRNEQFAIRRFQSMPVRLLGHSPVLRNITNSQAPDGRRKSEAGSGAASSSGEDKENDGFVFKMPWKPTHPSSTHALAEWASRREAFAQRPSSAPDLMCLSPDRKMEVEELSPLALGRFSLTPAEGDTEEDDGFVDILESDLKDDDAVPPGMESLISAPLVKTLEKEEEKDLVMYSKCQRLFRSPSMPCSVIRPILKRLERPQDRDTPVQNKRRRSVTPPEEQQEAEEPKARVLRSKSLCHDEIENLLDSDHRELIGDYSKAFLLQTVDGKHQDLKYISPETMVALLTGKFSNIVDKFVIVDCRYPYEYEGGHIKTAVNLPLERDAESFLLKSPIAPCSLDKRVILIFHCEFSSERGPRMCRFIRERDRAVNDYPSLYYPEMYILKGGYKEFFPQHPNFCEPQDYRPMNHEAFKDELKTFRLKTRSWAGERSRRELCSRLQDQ


Columns and labels:
[1] = biological target: T1, human cdc25 A (GST fusion protein); assay: cdc25 A tyrosine phosphatase assay with 32P-RCML substrate; assay type: biochemical
Description: A plasmid containing the entire open reading frame of human cdc25 A was digested with Ncol (at amino acid 1), blunt ended with T4 DNA polymerase, heat inactivated, extracted with phenolchlorophorm, ethanol precipitated and digested with EcoRI. The resultant 2.0 kb fragment was gel-purified and ligated into pGEX-2T Smal/EcoRI digested vector. Resultant plasmid upon transformation into bacteria gave rise to a 90 kd IPTG-inducible protein. […] Absorbance at 410 nm was determined using a molar absorptivity of 1.78×10^4M^−1 cm^−1 to calculate the concentration of the p-nitrophenolate ion generated in the assay. […]
Reduced carboxamidomethylated and maleylated lysozyme (RCML) was obtained from N. Tonks in a ^32P-tyrosine phosphorylated form. […] Reactions ([…]) were performed at 30° C. for 10 or 20 min, and after addition of the fatty acid free bovine serum albumin (BSA, Sigma) to 2 mg/ml, proteins were precipitated with […] of 20% trichloroacetic acid, vortexed, incubated at −70° C. for 5 min, thawed, spun in an Eppendorf centrifuge for 5–10 min at the maximal speed and […] supernatants were counted in 2 ml Aquasol (NEN) for 10 min. […]

[2] = biological target: T2, human cdc25 B (GST fusion protein); assay: cdc25 B tyrosine phosphatase assay, pH 8.8; assay type: biochemical; conditions: p13 at 25 mM, in the presence or absence of cyclin B

Row | Molecule | effect on the endogenous phosphatase activity of cdc25 A ([1]; RCML substrate, 10 pmoles of cyclin and cdc25 protein) | inhibition of the endogenous phosphatase activity of cdc25 A ([1]; p13 at 25 mM, without cyclin B1) | effect on the activity of cdc25 B [2]
1 | D: murine cyclin D1 (CYL1) expressed as fusion protein with GST (protein, left off: a dimerising Fc or GST) MEHQLLCCEVETIRRAYPDTNLLNDRVLRAMLKTEETCAPSVSYFKCVQKEIVPSMRKIVATWMLEVCEEQKCEEEVFPLAMNYLDRFLSLEPLKKSRLQLLGATCMFVASKMKETIPLTAEKLCIYTDNSIRPEELLQMELLLVNKLKWNLAAMTPHDFIEHFLSKMPEADENKQTIRKHAQTFVALCATDVKFISNPPSMVAAGSVVAAMQGLNLGSPNNFLSCYRTTHFLSRVIKCDPDCLRACQEQIEALLESSLRQAQQNVDPKATEEEGEVEEEAGLACTPTDVRDVDI | neither stimulatory nor inhibitory effect | – | –
2 | p13: p13 protein encoded by the suc1 gene, an essential subunit of the cdc2 protein kinase (protein) MSKSGVPRLLTASERERLEPFIDQIHYSPRYADDEYEYRHVMLPKAMLKAIPTDYFNPETGTLRILQEEEWRGLGITQSLGWEMYEVHVPEPHILLFKREKDYQMKFSQQRGG | – | 2–3 fold | no effect
